One molecule from patent US20120213761A1 (MEDIZINISCHE UNIVERSITAET WIEN, published 2012) can be followed below.

The assay has as its target T1, tumor necrosis factor receptor-associated factor 2 (TRAF2), endogenous, in human cardiac tissue (human, UniProt Q12933 2-501).
T1 construct: Immunoprecipitated from human cardiac tissue or tissue culture lysates with a TRAF2 antibody (BD Pharmingen)
T1 sequence (looked up): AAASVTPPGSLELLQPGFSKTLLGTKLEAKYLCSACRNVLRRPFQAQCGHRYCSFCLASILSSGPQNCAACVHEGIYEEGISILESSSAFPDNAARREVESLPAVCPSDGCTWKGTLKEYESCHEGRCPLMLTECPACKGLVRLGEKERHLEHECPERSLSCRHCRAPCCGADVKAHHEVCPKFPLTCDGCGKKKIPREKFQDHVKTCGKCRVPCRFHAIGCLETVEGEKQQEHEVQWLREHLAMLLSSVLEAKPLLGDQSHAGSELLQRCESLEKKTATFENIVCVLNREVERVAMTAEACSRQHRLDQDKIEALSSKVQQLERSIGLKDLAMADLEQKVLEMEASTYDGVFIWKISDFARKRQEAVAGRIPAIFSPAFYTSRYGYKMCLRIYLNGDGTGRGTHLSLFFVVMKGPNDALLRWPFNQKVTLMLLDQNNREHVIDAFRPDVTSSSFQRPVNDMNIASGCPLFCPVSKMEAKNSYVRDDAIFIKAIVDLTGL
In words: co-IP of LV myocardial lysates, Western blot (FIG. 2A). The method, then: Human cardiac tissue was lysed in the lysis buffer containing 20 mM Tris (pH 7.5), 135 mM NaCl, 2 mM ethylenediaminetetraacetic acid (EDTA), 2 mM dithiothreitol (DTT), 25 mM β-glycerophosphate, 2 mM sodium pyrophosphate, 10% glycerol, 1% Triton X-100, 1 mM sodium orthovanadate, 10 mM NaF and 1 mM phenylmethylsulfonyl fluoride (PMSF) supplemented with complete protease inhibitor cocktail (Roche Applied Science, Indianapolis, Ind., USA) at 4 C as described (Aharinejad et al., 2005). Lysates were centrifuged (15 000 g) at 4 C for 15 min. For identify GSTP1-TRAF2 complexes formation proteins (500 μg) were immunoprecipitated with TRAF2 antibody (0.5 μg, BD Pharmingen, San Diego, Calif.). […]
Protein lysates (50 μg/lane) were separated by SDS-PAGE (10%) prior to electrophoretic transfer onto a Nitrocellulose membrane (Bio-Rad, Hercules, Calif.) as described (Aharinejad et al., 2005). […] Protein loading was assessed by Ponceau S staining and immunodetection was performed by chemiluminescence (Supersignal-West-Pico, Pierce, Rockford, Bands were quantified by ImageQuant software and specific protein signals were normalized to loading controls and expressed as arbitrary units. The average value of three measurements in each sample was used for data analysis.
A general note: A western blot detects proteins with antibodies after separation by electrophoresis.

B1: Glutathione S-transferase P1 (GSTP1), endogenous, in human left ventricular myocardial lysates (enzyme)
chain: PPYTVVYFPVRGRCAALRMLLADQGQSWKEEVVTVETWQEGSLKASCLYGQLPKFQDGDLTLYQSNTILRHLGRTLGLYGKDQQEAALVDMVNDGVEDLRCKYISLIYTNYEAGKDDYVKALPGQLKPFETLLSQNQGGKTFIVGDQISFADYNLLDLLLIHEVLAPGCLDAFPLLSAYVGRLSARPKLKAFLASPEYVNLPINGNGKQ
notes: also called GST-pi; GSTP1-1
B1: the binding result was “binds”.
